Laboratory results published in the supplement of paper PMC10065799, “High-throughput profiling of sequence recognition by tyrosine kinases and SH2 domains using bacterial peptide display” (eLife, 2023).

Columns and labels:
[1] = molecular target: Grb2 SH2 (UniProt P62993); experiment: SH2 binding enrichment of the phosphorylated peptide, bacterial display (enrichment ratio); higher = better substrate or ligand; peptides without Tyr show the background
[2] = molecular target: c-Src SH2; experiment: as above
[3] = molecular target: SHP2-C SH2; experiment: as above
[4] = system: Fer (mouse); experiment: phosphorylation enrichment, bacterial display (enrichment ratio); higher = better substrate or ligand; peptides without Tyr show the background
[5] = system: c-Src; experiment: as above
[6] = system: c-Abl (mouse); experiment: as above
[7] = molecular target: EPHB2 (UniProt P29323); experiment: as above
[8] = molecular target: Hck (UniProt P08631); experiment: as above
[9] = molecular target: MERTK (UniProt Q12866); experiment: as above
[10] = molecular target: Fes (UniProt P07332); experiment: as above
[11] = molecular target: FGFR3 (UniProt P22607); experiment: as above
[12] = molecular target: FGFR1 (UniProt P11362); experiment: as above
[13] = molecular target: Fyn (UniProt P06241); experiment: as above
[14] = system: AncSZ; experiment: as above
[15] = molecular target: EPHB1 (UniProt P54762); experiment: as above
[16] = molecular target: Jak2 (UniProt O60674); experiment: as above
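Throughout, for SH2 binding enrichment of the phosphorylated peptide, bacterial display: peptide library displayed on the E. coli surface as eCPX fusions, selected cells deep-sequenced, score is each peptide's frequency after selection divided by its frequency in the input.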
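Throughout, for phosphorylation enrichment, bacterial display: 11-residue human phosphosite peptides and single-mutation variants displayed on the E. coli surface, counted by deep sequencing, each peptide's frequency after selection divided by its frequency in the unselected input library; frequency after pTyr selection over input frequency; kinase dosed for 20-30% of maximal phosphorylation in three min.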

Sequence of Grb2 SH2 (P62993 whole entry, looked up): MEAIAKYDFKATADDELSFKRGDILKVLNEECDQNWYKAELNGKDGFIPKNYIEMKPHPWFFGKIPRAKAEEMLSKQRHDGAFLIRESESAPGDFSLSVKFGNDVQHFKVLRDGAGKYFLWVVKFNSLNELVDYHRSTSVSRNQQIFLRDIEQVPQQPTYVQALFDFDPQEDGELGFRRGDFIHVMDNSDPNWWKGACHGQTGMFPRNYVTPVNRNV
Sequence of MERTK (Q12866 whole entry, looked up): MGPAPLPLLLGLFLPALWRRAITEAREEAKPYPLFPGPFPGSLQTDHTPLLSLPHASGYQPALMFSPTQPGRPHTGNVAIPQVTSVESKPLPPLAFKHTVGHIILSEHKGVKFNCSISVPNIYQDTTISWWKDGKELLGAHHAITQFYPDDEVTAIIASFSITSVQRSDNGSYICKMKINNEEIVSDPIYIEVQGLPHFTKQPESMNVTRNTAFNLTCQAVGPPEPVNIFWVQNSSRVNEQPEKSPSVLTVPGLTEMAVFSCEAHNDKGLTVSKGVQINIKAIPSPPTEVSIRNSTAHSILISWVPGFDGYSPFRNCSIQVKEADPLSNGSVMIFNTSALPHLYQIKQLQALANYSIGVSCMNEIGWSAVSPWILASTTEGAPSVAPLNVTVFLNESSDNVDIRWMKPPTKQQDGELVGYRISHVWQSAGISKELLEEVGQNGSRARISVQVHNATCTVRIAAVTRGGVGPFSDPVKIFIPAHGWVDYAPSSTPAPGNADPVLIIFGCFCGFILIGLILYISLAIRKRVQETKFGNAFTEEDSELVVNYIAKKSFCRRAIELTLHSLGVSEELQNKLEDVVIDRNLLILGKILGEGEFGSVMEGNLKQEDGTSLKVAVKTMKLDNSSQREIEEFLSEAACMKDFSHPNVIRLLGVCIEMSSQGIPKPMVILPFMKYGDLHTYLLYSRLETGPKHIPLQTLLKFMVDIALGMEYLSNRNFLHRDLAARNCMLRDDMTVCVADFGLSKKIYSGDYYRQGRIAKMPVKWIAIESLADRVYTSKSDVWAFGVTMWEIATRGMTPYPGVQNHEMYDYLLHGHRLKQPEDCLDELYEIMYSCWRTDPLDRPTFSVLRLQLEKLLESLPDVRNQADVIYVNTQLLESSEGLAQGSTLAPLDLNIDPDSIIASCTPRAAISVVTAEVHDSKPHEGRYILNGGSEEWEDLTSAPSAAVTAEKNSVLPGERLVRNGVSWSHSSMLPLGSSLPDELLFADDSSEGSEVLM
Sequence of EPHB1 (P54762 whole entry, looked up): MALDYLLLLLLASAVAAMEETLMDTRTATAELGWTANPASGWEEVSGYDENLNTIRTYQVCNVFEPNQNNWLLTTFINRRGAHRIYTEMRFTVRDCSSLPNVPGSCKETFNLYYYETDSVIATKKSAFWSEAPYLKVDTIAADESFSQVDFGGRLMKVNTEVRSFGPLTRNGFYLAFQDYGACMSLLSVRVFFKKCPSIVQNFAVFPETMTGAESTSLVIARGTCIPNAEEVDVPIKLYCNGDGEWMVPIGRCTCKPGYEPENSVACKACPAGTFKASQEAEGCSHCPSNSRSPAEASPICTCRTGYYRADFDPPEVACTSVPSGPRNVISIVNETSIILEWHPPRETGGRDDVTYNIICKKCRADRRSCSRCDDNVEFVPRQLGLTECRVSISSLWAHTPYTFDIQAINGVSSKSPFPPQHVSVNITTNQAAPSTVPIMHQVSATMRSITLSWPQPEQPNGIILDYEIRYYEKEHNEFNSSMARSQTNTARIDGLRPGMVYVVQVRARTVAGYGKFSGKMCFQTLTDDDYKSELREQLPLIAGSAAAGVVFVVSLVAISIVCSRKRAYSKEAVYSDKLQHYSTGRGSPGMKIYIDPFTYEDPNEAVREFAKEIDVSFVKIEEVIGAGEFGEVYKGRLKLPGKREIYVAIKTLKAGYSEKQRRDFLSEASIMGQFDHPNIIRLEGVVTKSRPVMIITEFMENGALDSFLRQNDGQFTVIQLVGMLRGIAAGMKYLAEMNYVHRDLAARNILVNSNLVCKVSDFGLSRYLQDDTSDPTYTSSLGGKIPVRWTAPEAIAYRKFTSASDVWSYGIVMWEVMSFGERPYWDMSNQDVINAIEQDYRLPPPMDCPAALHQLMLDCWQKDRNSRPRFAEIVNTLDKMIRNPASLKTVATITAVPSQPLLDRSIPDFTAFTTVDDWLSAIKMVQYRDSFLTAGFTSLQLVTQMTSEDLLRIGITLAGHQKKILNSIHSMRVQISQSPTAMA
Sequence of Fyn (P06241 whole entry, looked up): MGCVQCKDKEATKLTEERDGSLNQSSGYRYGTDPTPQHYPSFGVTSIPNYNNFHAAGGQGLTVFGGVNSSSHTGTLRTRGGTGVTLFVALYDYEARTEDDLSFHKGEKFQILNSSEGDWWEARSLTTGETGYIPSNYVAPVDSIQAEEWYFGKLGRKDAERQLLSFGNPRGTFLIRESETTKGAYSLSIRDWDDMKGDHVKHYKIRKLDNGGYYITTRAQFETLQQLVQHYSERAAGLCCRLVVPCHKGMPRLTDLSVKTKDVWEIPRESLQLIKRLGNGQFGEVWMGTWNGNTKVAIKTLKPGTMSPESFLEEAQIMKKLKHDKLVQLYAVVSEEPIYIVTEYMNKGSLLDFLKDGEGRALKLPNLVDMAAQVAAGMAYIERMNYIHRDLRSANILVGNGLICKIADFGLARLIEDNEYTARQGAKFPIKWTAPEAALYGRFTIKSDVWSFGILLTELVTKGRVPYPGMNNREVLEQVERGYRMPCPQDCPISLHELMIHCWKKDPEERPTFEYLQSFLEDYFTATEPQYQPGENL
Sequence of Jak2 (O60674 whole entry, looked up, the tested form may be a part): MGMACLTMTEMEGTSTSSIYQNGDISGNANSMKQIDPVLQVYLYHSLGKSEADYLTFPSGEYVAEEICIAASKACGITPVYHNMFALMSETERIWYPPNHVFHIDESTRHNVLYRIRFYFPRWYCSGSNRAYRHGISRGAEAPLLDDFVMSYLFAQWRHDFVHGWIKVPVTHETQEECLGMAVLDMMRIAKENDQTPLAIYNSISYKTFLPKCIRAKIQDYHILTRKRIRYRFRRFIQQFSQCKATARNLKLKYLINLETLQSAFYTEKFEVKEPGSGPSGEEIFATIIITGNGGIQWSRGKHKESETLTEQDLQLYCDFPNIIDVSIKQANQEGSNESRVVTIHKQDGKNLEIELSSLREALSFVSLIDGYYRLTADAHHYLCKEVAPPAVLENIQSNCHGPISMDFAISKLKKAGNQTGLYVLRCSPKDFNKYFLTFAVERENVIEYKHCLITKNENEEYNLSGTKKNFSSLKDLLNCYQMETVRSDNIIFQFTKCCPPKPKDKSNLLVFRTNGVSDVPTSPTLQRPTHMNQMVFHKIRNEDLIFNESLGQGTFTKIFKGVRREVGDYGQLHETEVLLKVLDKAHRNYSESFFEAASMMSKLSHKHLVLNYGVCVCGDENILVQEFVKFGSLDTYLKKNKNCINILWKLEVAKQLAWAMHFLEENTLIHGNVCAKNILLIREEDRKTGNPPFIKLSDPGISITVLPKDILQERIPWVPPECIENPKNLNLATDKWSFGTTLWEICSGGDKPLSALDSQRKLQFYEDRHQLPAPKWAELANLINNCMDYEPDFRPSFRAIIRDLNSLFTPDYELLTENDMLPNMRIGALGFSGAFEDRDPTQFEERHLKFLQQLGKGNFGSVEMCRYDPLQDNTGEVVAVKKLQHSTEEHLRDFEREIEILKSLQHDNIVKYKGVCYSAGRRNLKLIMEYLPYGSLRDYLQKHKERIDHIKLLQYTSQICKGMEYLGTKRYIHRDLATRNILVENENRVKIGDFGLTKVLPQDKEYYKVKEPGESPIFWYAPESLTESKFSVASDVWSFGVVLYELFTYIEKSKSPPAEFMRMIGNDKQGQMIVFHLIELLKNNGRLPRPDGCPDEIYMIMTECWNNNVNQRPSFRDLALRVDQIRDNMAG
Sequence of FGFR3 (P22607 whole entry, looked up): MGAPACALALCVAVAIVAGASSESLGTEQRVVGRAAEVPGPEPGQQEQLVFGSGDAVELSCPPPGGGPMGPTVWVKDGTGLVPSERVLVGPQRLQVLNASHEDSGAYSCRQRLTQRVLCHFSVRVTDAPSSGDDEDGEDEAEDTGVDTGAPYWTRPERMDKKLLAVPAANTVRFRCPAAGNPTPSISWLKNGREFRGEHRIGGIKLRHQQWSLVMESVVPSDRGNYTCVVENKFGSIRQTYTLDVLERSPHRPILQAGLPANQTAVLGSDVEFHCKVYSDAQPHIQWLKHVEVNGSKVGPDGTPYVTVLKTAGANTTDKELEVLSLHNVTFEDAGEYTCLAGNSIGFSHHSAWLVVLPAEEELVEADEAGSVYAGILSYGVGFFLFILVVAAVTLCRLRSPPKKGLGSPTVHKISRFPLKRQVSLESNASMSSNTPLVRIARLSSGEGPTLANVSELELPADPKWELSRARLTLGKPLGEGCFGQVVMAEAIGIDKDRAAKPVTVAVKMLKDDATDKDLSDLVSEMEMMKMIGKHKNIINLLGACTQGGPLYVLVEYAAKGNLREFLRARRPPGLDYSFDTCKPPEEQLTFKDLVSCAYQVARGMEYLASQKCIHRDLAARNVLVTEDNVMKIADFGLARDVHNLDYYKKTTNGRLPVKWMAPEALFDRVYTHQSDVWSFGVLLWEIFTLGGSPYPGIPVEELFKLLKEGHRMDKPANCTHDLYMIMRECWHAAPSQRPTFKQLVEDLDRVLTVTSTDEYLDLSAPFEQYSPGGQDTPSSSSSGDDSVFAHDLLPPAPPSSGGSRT

Sequence	SH2 binding enrichment [1]	SH2 binding enrichment [2]	SH2 binding enrichment [3]	phosphorylation enrichment [4]	phosphorylation enrichment [5]	phosphorylation enrichment [6]	phosphorylation enrichment [7]	phosphorylation enrichment [8]	phosphorylation enrichment [9]	phosphorylation enrichment [10]	phosphorylation enrichment [11]	phosphorylation enrichment [12]	phosphorylation enrichment [13]	phosphorylation enrichment [14]	phosphorylation enrichment [15]	phosphorylation enrichment [16]
GFILMYDITNK [RAB3C_Y110_E115K]	0.944	0.5	0.727	0.724	0.575	1.21	1.14	0.591	0.835	2.04	1.17	0.617	0.529	1.59	1.15	1.83
GFSDPYVKAFL [SYT3_Y470_S474F]	0.897	0.51	0.686	0.565	0.497	0.772	0.577	0.466	0.472	1	0.729	0.535	0.481	0.693	0.595	0.898
GFSRHYEDGFP [CTNND1_Y217_YF]	0.708	1.44	0.564	0.574	0.335	0.405	0.451	0.435	0.442	0.739	0.563	0.352	0.428	0.619	0.432	0.608
GGDVIYKGFED [NFU1_Y194]	0.822	0.427	0.625	0.395	2.75	0.663	0.491	0.951	0.466	0.887	0.629	0.499	3.25	0.871	0.425	0.924
GGFTRYCDGKK [PROS1_Y266_C265R_YF]	0.972	0.753	0.881	0.436	0.423	0.601	0.315	0.403	0.403	0.722	0.449	0.369	0.368	0.771	0.393	0.653
GGFTWYCDGKK [PROS1_Y266_C265W_YF]	0.761	0.37	0.511	0.438	0.299	0.928	0.605	0.389	0.29	1.23	0.833	0.432	0.328	1.08	0.651	1.2
GGYNNYGYGND [HNRNPH3_Y159]	1.22	0.934	0.571	0.672	0.456	1.24	3.79	0.556	0.565	0.849	0.688	0.66	0.805	0.802	1.92	0.808
GHLYAYDWISI [BEST1_Y227]	1.56	1.76	1.31	15	2.38	0.848	5.04	2.99	9.38	3.56	6.48	8.88	2.24	1.98	6.51	0.923
GHNDVYISKHV [GRIN2A_Y1423_E1426K]	0.79	0.395	0.651	0.313	0.352	0.376	0.333	0.412	0.347	0.536	0.364	0.323	0.423	0.373	0.254	0.391
GITVTYTIPKK [UBA5_Y372_A371T]	0.862	1.26	3.64	0.497	0.4	2.12	0.557	0.54	1.49	0.96	0.563	0.522	0.413	0.933	0.537	0.994
GKGGSYSQAAS [HLA-B_Y344_C349S]	0.609	0.434	0.785	0.441	0.529	0.622	0.41	0.462	0.493	0.819	0.52	0.515	0.362	0.548	0.47	0.651
GKPENYRRLDI [VHL_Y175_V170G]	0.755	0.508	0.754	0.301	0.353	0.457	0.285	0.327	0.337	0.598	0.376	0.335	0.295	0.452	0.317	0.539
GKTQQYECKWF [BCR_Y751_D752E_YF]	0.694	0.488	0.529	0.572	0.472	0.614	0.603	0.569	0.467	1.06	0.627	0.545	0.509	0.818	0.509	0.793
GLDGSYLPRDS [SH2D1A_Y29_L31P]	0.879	0.557	0.483	0.419	0.418	0.513	0.4	0.55	0.416	0.624	0.446	0.418	0.356	0.663	0.44	0.534
GLGGVYGGASG [KRT8_Y54_G53V]	0.705	0.385	0.709	0.418	0.702	0.577	0.355	0.669	0.445	0.661	0.52	0.448	0.566	0.514	0.445	0.587
GLQDEYDFKCK [STAT1_Y170_D165G]	0.709	0.559	0.74	0.467	0.543	0.831	0.63	0.597	0.453	1.12	0.555	0.626	0.453	1.09	0.509	1.18
GLRSYYETSKM [MAGED2_Y449]	0.839	0.842	0.638	0.465	0.591	0.534	0.584	0.656	0.546	0.762	1.13	1.44	0.417	0.592	0.475	0.784

Sequence	SH2 binding enrichment [1]	SH2 binding enrichment [2]	SH2 binding enrichment [3]	phosphorylation enrichment [4]	phosphorylation enrichment [5]	phosphorylation enrichment [6]	phosphorylation enrichment [7]	phosphorylation enrichment [8]	phosphorylation enrichment [9]	phosphorylation enrichment [10]	phosphorylation enrichment [11]	phosphorylation enrichment [12]	phosphorylation enrichment [13]	phosphorylation enrichment [14]	phosphorylation enrichment [15]	phosphorylation enrichment [16]
GLRYGYGVLGG [KRTAP20-2_Y15]	0.933	0.723	0.769	0.432	0.9	0.487	0.398	0.443	0.413	0.605	0.497	0.447	0.495	0.596	0.407	0.586
GLSAPYVKIHL [SYT2_Y309_D307A]	1.03	1.07	3.06	0.527	0.383	0.509	0.423	0.443	0.43	0.785	0.714	0.436	0.337	0.747	0.426	0.994
GLSDPYVKIHL [SYT2_Y309]	0.873	0.836	1.07	0.488	0.376	0.556	0.721	0.406	0.397	0.993	0.589	0.546	0.458	0.693	0.425	0.787
GLTSTYVGIRK [ROBO1_Y932_A933V]	0.741	0.649	11.5	0.374	0.562	0.565	0.506	1.67	0.463	0.775	0.489	0.46	0.528	0.756	0.471	0.598
GRTNICKNKKD [SLC26A3_Y520_Y520C]	1.79	1.43	1.4	0.448	0.437	1.39	0.447	0.482	0.366	0.973	0.911	0.471	0.331	0.631	0.462	1.16
GRVLGYGAFRK [FLT4_Y853_G857R]	0.671	0.549	0.733	0.406	0.52	0.644	0.432	0.486	0.482	0.586	0.495	0.477	0.517	0.634	0.44	0.539
GSERRYTREGG [PTPRN2_Y139_S140T]	0.777	0.485	0.563	0.351	0.482	0.489	0.347	0.415	0.382	0.583	0.407	0.458	0.319	0.448	0.345	0.463
GSIQQYTFKQE [PRG4_Y1271_I1272T_YF]	0.829	0.53	0.937	0.427	0.356	0.728	0.451	0.347	0.322	0.785	0.573	0.369	0.345	0.703	0.484	0.641
GSRGKYFSGFR [ATM_Y332_S333F]	0.963	0.544	0.833	0.325	0.616	0.657	0.399	0.351	0.481	0.736	0.412	0.415	0.386	0.547	0.425	0.885
GVLKEYGEKVL [CPS1_Y529_V531E]	0.921	0.427	0.767	0.405	0.396	0.648	0.474	0.422	0.415	0.719	0.466	0.419	0.425	0.742	0.42	0.573
GVMLLYYGRYN [ADGRD1_Y85_T82M]	1.17	0.96	0.921	0.515	2.23	0.594	0.761	1.21	0.416	1.24	0.6	0.556	1.24	1.53	0.616	1.34
GVRLFYRVRES [RB1_Y454_M457R_YF]	0.705	0.476	0.578	0.461	0.349	0.976	0.529	0.375	0.383	1.16	0.65	0.513	0.417	1.25	0.471	1.05
GVTLLYFGRDN [ADGRD1_Y85_Y89D_YF]	1.63	1.16	1.19	0.481	0.398	0.643	0.424	0.516	0.321	1.04	0.737	0.488	0.353	0.887	0.633	0.937
GVYSRHFTTYD [CLCA1_Y661_Y661H]	0.713	0.477	0.714	0.642	0.768	0.359	0.473	1.31	0.569	0.657	0.508	0.389	0.648	0.823	0.495	0.507
GYDHSYYFIAT [ESD_Y262]	0.702	0.871	0.727	1.1	1.57	0.759	1.24	2.02	4.8	1.22	9.89	11.1	1.41	2.05	1.95	6.79
GYYDLYGGEKF [PTPN11_Y66_D61G]	0.939	3.86	0.778	3.13	4.54	0.68	9.35	6.7	6.61	0.931	8.65	10.9	7.27	1.3	3.27	3.15
